# Laboratory results: paper PMC8294582
# Biological target: RNA polymerase II, P24928
# Assay: coimmunoprecipitation (anti-FLAG beads, Western blot quantification)
# Conditions: chain shown with the change; tSETD2-FLAG on anti-Flag beads incubated with HEK293 cell lysate; parent: est. 82; read off a plot
row,Binder,response (% of input bound)
1,"truncated form of human WT SETD2, FLAG-tagged (tSETD2-FLAG, aa1418–2564), Q9BYW2 H2514A (protein) DGELQDRKKVRVEVEQGETSVPPGSALVGPSCVMDDFRDPQRWKECAKQGKMPCYFDLIEENVYLTERKKNKSHRDIKRMQCECTPLSKDERAQGEIACGEDCLNRLLMIECSSRCPNGDYCSNRRFQRKQHADVEVILTEKKGWGLRAAKDLPSNTFVLEYCGEVLDHKEFKARVKEYARNKNIHYYFMALKNDEIIDATQKGNCSRFMNHSCEPNCETQKWTVNGQLRVGFFTTKLVPSGSELTFDYQFQRYGKEAQKCFCGSANCRGYLGGENRVSIRAAGGKMKKERSRKKDSVDGELEALMENGEGLSDKNQVLSLSRLMVRIETLEQKLTCLELIQNTHSQSCLKSFLERHGLSLLWIWMAELGDGRESNQKLQEEIIKTLEHLPIPTKNMLEESKVLPIIQRWSQTKTAVPPLSEGDGYSSENTSRAHTPLNTPDPSTKLSTEADTDTPKKLMFRRLKIISENSMDSAISDATSELEGKDGKEDLDQLENVPVEEEEELQSQQLLPQQLPECKVDSETNIEASKLPTSEPEADAEIEPKESNGTKLEEPINEETPSQDEEEGVSDVESERSQEQPDKTVDISDLATKLLDSWKDLKEVYRIPKKSQTEKENTTTERGRDAVGFRDQTPAPKTPNRSRERDPDKQTQNKEKRKRRSSLSPPSSAYERGTKRPDDRYDTPTSKKKVRIKDRNKLSTEERRKLFEQEVAQREAQKQQQQMQNLGMTSPLPYDSLGYNAPHHPFAGYPPGYPMQAYVDPSNPNAGKVLLPTPSMDPVCSPAPYDHAQPLVGHSTEPLSAPPPVPVVPHVAAPVEVSSSQYVAQSDGVVHQDSSVAVLPVPAPGPVQGQNYSVWDSNQQSVSVQQQYSPAQSQATIYYQGQTCPTVYGVTSPYSQTTPPIVQSYAQPSLQYIQGQQIFTAHPQGVVVQPAAAVTTIVAPGQPQPLQPSEMVVTNNLLDLPPPSPPKPKTIVLPPNWKTARDPEGKIYYYHVITRQTQWDPPTWESPGDDASLEHEAEMDLGTPTYDENPMKASKKPKTAEADTSSELAKKSKEVFRKEMSQFIVQCLNPYRKPDCKVGRITTTEDFKHLARKLTAGVMNKELKYCKNPEDLECNENVKHKTKEYIKKYMQKFGAVYKPKEDTELE",17
2,"truncated form of human WT SETD2, FLAG-tagged (tSETD2-FLAG, aa1418–2564), Q9BYW2 V2483A (protein) DGELQDRKKVRVEVEQGETSVPPGSALVGPSCVMDDFRDPQRWKECAKQGKMPCYFDLIEENVYLTERKKNKSHRDIKRMQCECTPLSKDERAQGEIACGEDCLNRLLMIECSSRCPNGDYCSNRRFQRKQHADVEVILTEKKGWGLRAAKDLPSNTFVLEYCGEVLDHKEFKARVKEYARNKNIHYYFMALKNDEIIDATQKGNCSRFMNHSCEPNCETQKWTVNGQLRVGFFTTKLVPSGSELTFDYQFQRYGKEAQKCFCGSANCRGYLGGENRVSIRAAGGKMKKERSRKKDSVDGELEALMENGEGLSDKNQVLSLSRLMVRIETLEQKLTCLELIQNTHSQSCLKSFLERHGLSLLWIWMAELGDGRESNQKLQEEIIKTLEHLPIPTKNMLEESKVLPIIQRWSQTKTAVPPLSEGDGYSSENTSRAHTPLNTPDPSTKLSTEADTDTPKKLMFRRLKIISENSMDSAISDATSELEGKDGKEDLDQLENVPVEEEEELQSQQLLPQQLPECKVDSETNIEASKLPTSEPEADAEIEPKESNGTKLEEPINEETPSQDEEEGVSDVESERSQEQPDKTVDISDLATKLLDSWKDLKEVYRIPKKSQTEKENTTTERGRDAVGFRDQTPAPKTPNRSRERDPDKQTQNKEKRKRRSSLSPPSSAYERGTKRPDDRYDTPTSKKKVRIKDRNKLSTEERRKLFEQEVAQREAQKQQQQMQNLGMTSPLPYDSLGYNAPHHPFAGYPPGYPMQAYVDPSNPNAGKVLLPTPSMDPVCSPAPYDHAQPLVGHSTEPLSAPPPVPVVPHVAAPVEVSSSQYVAQSDGVVHQDSSVAVLPVPAPGPVQGQNYSVWDSNQQSVSVQQQYSPAQSQATIYYQGQTCPTVYGVTSPYSQTTPPIVQSYAQPSLQYIQGQQIFTAHPQGVVVQPAAAVTTIVAPGQPQPLQPSEMVVTNNLLDLPPPSPPKPKTIVLPPNWKTARDPEGKIYYYHVITRQTQWDPPTWESPGDDASLEHEAEMDLGTPTYDENPMKASKKPKTAEADTSSELAKKSKEVFRKEMSQFIAQCLNPYRKPDCKVGRITTTEDFKHLARKLTHGVMNKELKYCKNPEDLECNENVKHKTKEYIKKYMQKFGAVYKPKEDTELE",76

# More lines, now with the values ahead:
row,response (% of input bound),Binder
1,84,"truncated form of human WT SETD2, FLAG-tagged (tSETD2-FLAG, aa1418–2564), Q9BYW2 R2510H (protein) DGELQDRKKVRVEVEQGETSVPPGSALVGPSCVMDDFRDPQRWKECAKQGKMPCYFDLIEENVYLTERKKNKSHRDIKRMQCECTPLSKDERAQGEIACGEDCLNRLLMIECSSRCPNGDYCSNRRFQRKQHADVEVILTEKKGWGLRAAKDLPSNTFVLEYCGEVLDHKEFKARVKEYARNKNIHYYFMALKNDEIIDATQKGNCSRFMNHSCEPNCETQKWTVNGQLRVGFFTTKLVPSGSELTFDYQFQRYGKEAQKCFCGSANCRGYLGGENRVSIRAAGGKMKKERSRKKDSVDGELEALMENGEGLSDKNQVLSLSRLMVRIETLEQKLTCLELIQNTHSQSCLKSFLERHGLSLLWIWMAELGDGRESNQKLQEEIIKTLEHLPIPTKNMLEESKVLPIIQRWSQTKTAVPPLSEGDGYSSENTSRAHTPLNTPDPSTKLSTEADTDTPKKLMFRRLKIISENSMDSAISDATSELEGKDGKEDLDQLENVPVEEEEELQSQQLLPQQLPECKVDSETNIEASKLPTSEPEADAEIEPKESNGTKLEEPINEETPSQDEEEGVSDVESERSQEQPDKTVDISDLATKLLDSWKDLKEVYRIPKKSQTEKENTTTERGRDAVGFRDQTPAPKTPNRSRERDPDKQTQNKEKRKRRSSLSPPSSAYERGTKRPDDRYDTPTSKKKVRIKDRNKLSTEERRKLFEQEVAQREAQKQQQQMQNLGMTSPLPYDSLGYNAPHHPFAGYPPGYPMQAYVDPSNPNAGKVLLPTPSMDPVCSPAPYDHAQPLVGHSTEPLSAPPPVPVVPHVAAPVEVSSSQYVAQSDGVVHQDSSVAVLPVPAPGPVQGQNYSVWDSNQQSVSVQQQYSPAQSQATIYYQGQTCPTVYGVTSPYSQTTPPIVQSYAQPSLQYIQGQQIFTAHPQGVVVQPAAAVTTIVAPGQPQPLQPSEMVVTNNLLDLPPPSPPKPKTIVLPPNWKTARDPEGKIYYYHVITRQTQWDPPTWESPGDDASLEHEAEMDLGTPTYDENPMKASKKPKTAEADTSSELAKKSKEVFRKEMSQFIVQCLNPYRKPDCKVGRITTTEDFKHLAHKLTHGVMNKELKYCKNPEDLECNENVKHKTKEYIKKYMQKFGAVYKPKEDTELE"
2,12,"truncated form of human WT SETD2, FLAG-tagged (tSETD2-FLAG, aa1418–2564), Q9BYW2 F2505A (protein) DGELQDRKKVRVEVEQGETSVPPGSALVGPSCVMDDFRDPQRWKECAKQGKMPCYFDLIEENVYLTERKKNKSHRDIKRMQCECTPLSKDERAQGEIACGEDCLNRLLMIECSSRCPNGDYCSNRRFQRKQHADVEVILTEKKGWGLRAAKDLPSNTFVLEYCGEVLDHKEFKARVKEYARNKNIHYYFMALKNDEIIDATQKGNCSRFMNHSCEPNCETQKWTVNGQLRVGFFTTKLVPSGSELTFDYQFQRYGKEAQKCFCGSANCRGYLGGENRVSIRAAGGKMKKERSRKKDSVDGELEALMENGEGLSDKNQVLSLSRLMVRIETLEQKLTCLELIQNTHSQSCLKSFLERHGLSLLWIWMAELGDGRESNQKLQEEIIKTLEHLPIPTKNMLEESKVLPIIQRWSQTKTAVPPLSEGDGYSSENTSRAHTPLNTPDPSTKLSTEADTDTPKKLMFRRLKIISENSMDSAISDATSELEGKDGKEDLDQLENVPVEEEEELQSQQLLPQQLPECKVDSETNIEASKLPTSEPEADAEIEPKESNGTKLEEPINEETPSQDEEEGVSDVESERSQEQPDKTVDISDLATKLLDSWKDLKEVYRIPKKSQTEKENTTTERGRDAVGFRDQTPAPKTPNRSRERDPDKQTQNKEKRKRRSSLSPPSSAYERGTKRPDDRYDTPTSKKKVRIKDRNKLSTEERRKLFEQEVAQREAQKQQQQMQNLGMTSPLPYDSLGYNAPHHPFAGYPPGYPMQAYVDPSNPNAGKVLLPTPSMDPVCSPAPYDHAQPLVGHSTEPLSAPPPVPVVPHVAAPVEVSSSQYVAQSDGVVHQDSSVAVLPVPAPGPVQGQNYSVWDSNQQSVSVQQQYSPAQSQATIYYQGQTCPTVYGVTSPYSQTTPPIVQSYAQPSLQYIQGQQIFTAHPQGVVVQPAAAVTTIVAPGQPQPLQPSEMVVTNNLLDLPPPSPPKPKTIVLPPNWKTARDPEGKIYYYHVITRQTQWDPPTWESPGDDASLEHEAEMDLGTPTYDENPMKASKKPKTAEADTSSELAKKSKEVFRKEMSQFIVQCLNPYRKPDCKVGRITTTEDAKHLARKLTHGVMNKELKYCKNPEDLECNENVKHKTKEYIKKYMQKFGAVYKPKEDTELE"
